T1: CX3CR1 (human, UniProt P49238 1-355)
T1 sequence: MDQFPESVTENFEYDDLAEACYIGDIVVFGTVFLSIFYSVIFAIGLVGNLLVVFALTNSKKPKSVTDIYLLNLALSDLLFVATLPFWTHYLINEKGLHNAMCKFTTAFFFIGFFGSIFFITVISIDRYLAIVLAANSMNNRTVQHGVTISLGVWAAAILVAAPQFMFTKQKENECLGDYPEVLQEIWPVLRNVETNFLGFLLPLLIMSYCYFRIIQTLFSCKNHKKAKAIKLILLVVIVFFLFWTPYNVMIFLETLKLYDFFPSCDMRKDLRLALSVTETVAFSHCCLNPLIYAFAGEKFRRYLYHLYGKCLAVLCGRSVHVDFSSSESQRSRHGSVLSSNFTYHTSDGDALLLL

T2: RSV G[169-198] (respiratory syncytial virus)
T2 construct: also called synthetic RSV G peptide
T2 peptide: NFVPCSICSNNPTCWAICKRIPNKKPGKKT

B1: RSV G ectodomain (G[ecto]) (other)
chain: SANHKVTPTTAIIQDATSQIKNTTPTYLTQNPQLGISPSNPSEITSQITTILASTTPGVKSTLQSTTVKTKNTTTTQTQPSKPTTKQRQNKPPSKPNNDFHFEVFNFVPCSICSNNPTCWAICKRIPNKKPGKKTTTKPTKKPTLKTTKKDPKPQTTKSKEVPTTKPTEEPTINTTKTNIITTLLTSNTTGNPELTSQMETFHSTSSEGNPSPSQVSTTSEYPSQPSSPPNTPRQHHHHHHGWSHPQFEKGGGSGGGSGGGSWSHPQFEK
B2: RSV G[161-197] (peptide)
peptide: MGNDFHFEVFNFVPCSICSNNPTCWAICKRIPNKKPGKKHHHHHH
B3: mAb 3D3 (antibody, V domains shown)
VH: EEQLVESGGGLVQPGRSLRLSCVGSGLRFEEHAMHWVRQAPGRGLEWVSGISWNSGSVGYADSVKGRFTTSRDNAKDILFLEMNTLRSEDTALYFCAIMVATTKNDFHYYKDVWGKGTTVTVSS
VL: QIVLTQSPATLSLSPGERATLSCRASQSVSNHLAWYQQKPGQAPRLLIYETSNRATGIPPRFSGSGSGTDFTLTISSLEPEDFAVYYCQQRNNWYTFGQGTKLEIK
B4: mAb 2D10 (antibody, V domains shown)
VH: QVQLVQSGPEVKKPGASVRLSCKASGYVFTNYGVSWVRQAPGQGLEWMGWSSPYNGNTYYAQKLKARVTMTTDTSTNTAYMELRSLRSDDTAVYYCGRDMLGVVQAVAGPFDSWGQGTLVTVSS
VL: DTPMTQSPSSVSASVGDRVTISCRASQGISNSLAWYQQKLGKAPQLLIYAASSLQSGVPSRFSGSGSGTDFTLTISSLQPEDFATYYCQQTNTFPFTFGPGTKVEVRR
B5: scFv 2D10 (scFv)
scFv: QVQLVQSGPEVKKPGASVRLSCKASGYVFTNYGVSWVRQAPGQGLEWMGWSSPYNGNTYYAQKLKARVTMTTDTSTNTAYMELRSLRSDDTAVYYCGRDMLGVVQAVAGPFDSWGQGTLVTVSSASGGGGSGGGGSGGGGSGGGDTPMTQSPSSVSASVGDRVTISCRASQGISNSLAWYQQKLGKAPQLLIYAASSLQSGVPSRFSGSGSGTDFTLTISSLQPEDFATYYCQQTNTFPFTFGPGTKVEVRR
notes: Expressed in Drosophila S2 cells with BiP signal; Twin-Strep tag removed with thrombin before use; A few vector residues probably remain at both ends (RS; ASLVPR); also called recombinant single-chain variable fragment (scFv) of 2D10

Key:
CX3CR1 (human) = CX3CR1 (human) (UniProt P49238); assay: cell-based or functional assay; settings: scale: chemotactic index
CX3CR1 [1] = biological target: T1, CX3CR1; assay: cell-based or functional assay
CX3CR1 [2] = biological target: T1, CX3CR1; assay: cell-based or functional assay; remark: listed apart in the source
RSV G[161-197] = biological target: B2; assay: cell-based or functional assay
RSV G[169-198] = biological target: T2, RSV G[169-198]; assay: complex formation and X-ray crystal structure
Description: Diffraction data from a single crystal were processed with HKL2000.

Molecule | Chemotactic activity (THP-1 chemotaxis assay, duplicate assays, standard deviation in parentheses) (CX3CR1 [2]) | further results
anti-CX3CR1 rabbit polyclonal antibody (ThermoFisher Scientific Cat# PAS-19910) |  | chemotactic index of THP-1 cells pre-incubated with anti-CX3CR1 antibody, toward 5 nM RSV G[161-197] (CX3CR1 (human)): 1.1
B1 |  | chemotactic index of THP-1 cells toward 5 nM RSV G[ecto] (CX3CR1 [1]): 3.9 chemotactic index (fold over serum-free media)
NDFHFEVFNFVPCSICWNNPTCWAICKRIPNKKPGKK [RSV G (CCR) variant S177→W] | 1.2 chemotactic index (negative control PBS = 1.0) | 
NDFHFEVFNFVPCSICRNNPTCWAICKRIPNKKPGKK [RSV G (CCR) variant S177→R] | 0.9 chemotactic index (negative control PBS = 1.0) | 
NDFHFKVFNFVPCSICSNNPTCWAICERIPNKKPGKK [RSV G (CCR) variant E166→K + K187 →E] | 1.8 chemotactic index (negative control PBS = 1.0) | 
NDFHFEVFNFVPCSICSNNPTCWAICKRIPNEEPGKK [RSV G (CCR) variant K192→E + K193 →E] | 2.5 chemotactic index (negative control PBS = 1.0) | 
B2 |  | chemotactic index of THP-1 cells toward 5 nM RSV G[161-197] (CX3CR1 [1]): 4.2 chemotactic index (fold over serum-free media)
B3 |  | chemotactic index of THP-1 cells toward 5 nM RSV G[161-197] pre-incubated with 25 nM mAb (RSV G[161-197]): 1.5 chemotactic index (fold over serum-free media)
B4 |  | chemotactic index of THP-1 cells toward 5 nM RSV G[161-197] pre-incubated with 25 nM mAb (RSV G[161-197]): 1 chemotactic index (fold over serum-free media)
NDFHFEVFNFVPCSICSNNPTCWAICKRIPNKKPGKK [Wild type RSV G (CCR)] | 6.2 chemotactic index (negative control PBS = 1.0) | 
NDFYFEVFNFVPCSICSNNPTCWAICKRIPNKKPGKK [RSV G (CCR) variant H164→Y] | 3.8 chemotactic index (negative control PBS = 1.0) | 
NDFHFKVFNFVPCSICSNNPTCWAICKRIPNKKPGKK [RSV G (CCR) variant E166→K] | 1.6 chemotactic index (negative control PBS = 1.0) | 
B5 |  | binding result (RSV G[169-198]): binds
